These results are taken from patent US20160185850A1 (ESBATECH AN ALCON BIOMEDICAL RESEARCH UNIT, published 2016).

Substitutions are numbered along the chain they refer to. In names and notes the source's numbering stands.

The labels stand for the following.
B1: TB-A H_F68L (scFv)
scFv: DIVMTQSPSSLSASVGDRVTLTCTASQSVSNDVVWYQQRPGKAPKLLIYSAFNRYTGVPSRFSGRGYGTDFTLTISSLQPEDVAVYYCQQDYNSPRTFGQGTKLEVKRGGGGSGGGGSGGGGSGGGGSQVQLVQSGAEVKKPGASVKVSCTASGYTFTHYGMNWVRQAPGKGLEWMGWINTYTGEPTYADKFKDRLTFSLETSASTVYMELTSLTSDDTAVYYCARERGDAMDYWGQGTLVTVSS
B2: TB-A H_F68A (scFv)
scFv: B1 scFv with L196A
B3: TB-A H_F68V/F70L (scFv)
scFv: B1 scFv with L196V, F198L
B4: TB-A H_M48L/F68I (scFv)
scFv: B1 scFv with M176L, L196I
B5: TB-A H_F70L (scFv)
scFv: B1 scFv with L196F, F198L
B6: TB-A H_K43R/F68I (scFv)
scFv: B1 scFv with K171R, L196I
B7: TB-A Linker_G2R H_F68L (scFv)
scFv: B1 scFv with G110R
B8: TB-B L46 (scFv)
scFv: DIVLTQSPSSLSASVGDRVTLTCTASQSVSNDVVWYQQRPGKAPKLLIYSAFNRYTGVPSRFSGSGSGTEFTLTISSLQPEDVAVYYCQQDYNSPRTFGQGTKLEVKRGGGGSGGGGSGGGGSGGGGSQVQLVQSGAEVKKPGASVKVSCTASGYSFTHYGMNWVRQAPGQGLEWMGWINTYTGEPTYADKFKDRVTLTRDTSIGTVYMELTSLTSDDTAVYYCARERGDAMDYWGQGTLVTVSS
notes: Differs from TB-B only at position 46 of VL (R to L); also called TB-B R46L
B9: TB-A H_F70L/L72R (scFv)
scFv: B1 scFv with L196F, F198L, L200R
notes: also called TB-A H70/72

By Kd is commonly meant the constant that tells how readily two partners part at equilibrium.

For one assay, the target named is T1, recombinant human TNFα (human, UniProt P01375 77-233). Kind of assay: cell-based or functional assay.
T1 sequence (P01375 77-233 limits assumed): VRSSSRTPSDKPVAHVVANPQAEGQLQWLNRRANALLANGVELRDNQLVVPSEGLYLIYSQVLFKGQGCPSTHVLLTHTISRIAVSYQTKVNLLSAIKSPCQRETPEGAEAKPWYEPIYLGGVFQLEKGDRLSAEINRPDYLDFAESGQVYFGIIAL
In the case of B1, the “Relative potency: EC50X/EC50TB-A, KYM-1 cells” value (from here on “Relative potency … KYM-1 cells”) is 1.5 ratio EC50X/EC50TB-A and the “Relative potency: EC50X/EC50TB-A, L929 cells” value (“Relative potency … L929 cells” for short) stood at 1.32 ratio EC50X/EC50TB-A. Take B2: the “Relative potency … L929 cells” value was 1.14 ratio EC50X/EC50TB-A. For B3, the “Relative potency … L929 cells” value came to 1.28 ratio EC50X/EC50TB-A. As to B4, the “Relative potency … KYM-1 cells” value was 1.6 ratio EC50X/EC50TB-A and the “Relative potency … L929 cells” value was 1.1 ratio EC50X/EC50TB-A.

For the molecule B5, the “Relative potency … L929 cells” value was found to be 2.7 ratio EC50X/EC50TB-A. Consider B6, for which the “Relative potency … KYM-1 cells” value is 1.5 ratio EC50X/EC50TB-A and the “Relative potency … L929 cells” value stood at 1.37 ratio EC50X/EC50TB-A. For B7, in that order: 1.3 ratio EC50X/EC50TB-A and 0.8 ratio EC50X/EC50TB-A.

A further assay addresses T1, recombinant human TNFα. Kind of assay: ELISA on recombinant human TNFα (FIG. 4A).
Regarding B8, the dissociation constant (Kd) was around 100 nM.

The next assay has as its target T1, recombinant human TNFα. Kind of assay: ELISA on recombinant human TNFα. (ELISA stands for enzyme-linked immunosorbent assay.)
For B9, the binding result is recorded as “binds”.
